Results taken from PMC7234810.

Key:
[1] = target: Mouse IL-33-TRAP-Fc (a fusion protein of ST2 and IL-1RAcP with an Fc tag) (mouse); test: SPR; BIAcore T200, single cycle kinetics, 25°C; mouse ST2-Fc (~200 RU) or mouse TRAP-Fc (~400 RU) captured on a Protein G chip; HpBARI injected in three-fold dilutions; 10 mM NaH2PO4 pH 7.5, 150 mM NaCl, 50 uM EDTA, 0.05% surfactant P20; 1:1 model
[2] = target: Mouse ST2-Fc chimera (mouse) (UniProt P14719); test: as above
[3] = target: Human ST2-Fc chimera (human) (UniProt Q01638)
Human ST2-Fc chimera (human), sequence (Q01638 19-328, change not shown): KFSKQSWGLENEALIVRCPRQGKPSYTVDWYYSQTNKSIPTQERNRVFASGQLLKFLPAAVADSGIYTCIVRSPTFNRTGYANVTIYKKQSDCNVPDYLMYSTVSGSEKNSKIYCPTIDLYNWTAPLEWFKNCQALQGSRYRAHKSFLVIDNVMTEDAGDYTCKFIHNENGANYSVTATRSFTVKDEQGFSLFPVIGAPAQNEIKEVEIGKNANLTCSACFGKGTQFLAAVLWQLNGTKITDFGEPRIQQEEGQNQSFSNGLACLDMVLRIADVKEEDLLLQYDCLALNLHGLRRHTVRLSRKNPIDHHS

Mouse ST2-Fc chimera (mouse), sequence (P14719 27-332, change not shown): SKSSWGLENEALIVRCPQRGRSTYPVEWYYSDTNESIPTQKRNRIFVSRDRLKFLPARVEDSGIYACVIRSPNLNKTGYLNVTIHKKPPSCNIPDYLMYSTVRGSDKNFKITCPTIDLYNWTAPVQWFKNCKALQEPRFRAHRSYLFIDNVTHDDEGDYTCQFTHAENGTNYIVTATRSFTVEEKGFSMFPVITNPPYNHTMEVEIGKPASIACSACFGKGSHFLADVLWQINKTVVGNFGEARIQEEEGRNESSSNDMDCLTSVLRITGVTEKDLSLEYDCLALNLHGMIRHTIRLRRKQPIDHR

In the case of “HpBARI expressed with C-terminal tags (natural protein)”, the fold change of the off-rate against the N-terminal tagged construct [1] is reported as 4 fold.

With “H. polygyrus Binds Alarmin Receptor and Inhibits (HpBARI), N-terminal tagged (natural protein)” the Kd [1] was 0.17 nM, the koff [1] was 0.00065 s⁻¹ and the kon [1] was 3.9e+06 M⁻¹ s⁻¹. The Kd [2] was 0.26 nM, the koff [2] was 0.0011 s⁻¹ and the kon [2] was 4e+06 M⁻¹ s⁻¹. It also gave an IC50 of inhibition of IL-33-induced IFN-γ production from human PBMCs (5 ng/ml IL-12 + 0.1 ng/ml oxidation resistant human IL-33, 44 hr, ELISA); blocks human IL-33 with human ST2 [3] of over 1000 nM.
